By Km is commonly meant the substrate concentration at which the rate is half of its maximum. For orientation: kcat means the number of substrate molecules converted per active site and unit of time at saturation.

Substrate in data set [1]: CC=O
In words: purified protein. The conditions noted are these: 0.3 mM NADH, 2.5 mM MgSO4, 100 mM HEPES pH 7, 50°C, acetaldehyde 0.01–0.14 mM. It is filed as biochemical, Geobacillus stearothermophilus.

Substrate in data set [2]: CCCC=O
Description: purified protein. It is filed as biochemical, Geobacillus stearothermophilus. The conditions noted are these: 0.3 mM NADH, 2.5 mM MgSO4, 100 mM HEPES pH 7, 50°C, butyraldehyde 0.8–3 mM.

B1: ADH (ADH-HT) (Geobacillus stearothermophilus) (protein)
chain: MKAAVVEQFKEPLKIKEVEKPTISYGEVLVRIKACGVCHTDLHAAHGDWPVKPKLPLIPGHEGVGIVEEVGPGVTHLKVGDRVGIPWLYSACGHCDYCLSGQETLCEHQKNAGYSVDGGYAEYCRAAADYVVKIPDNLSFEEAAPIFCAGVTTYKALKVTGAKPGEWVAIYGIGGLGHVAVQYAKAMGLNVVAVDIGDEKLELAKELGADLVVNPLKEDAAKFMKEKVGGVHAAVVTAVSKPAFQSAYNSIRRGGACVLVGLPPEEMPIPIFDTVLNGIKIIGSIVGTRKDLQEALQFAAEGKVKTIIEVQPLEKINEVFDRMLKGQINGRVVLTLEDK
notes: codon-optimised synthetic gene in pET-22b (NdeI/XhoI), C-terminal His-tag, expressed in E. coli, IMAC purified
As to B1, the Km in “purified protein [1]” worked out at 65 ± 5 µM; in the data set “purified protein [2]” it was 1430 ± 160 µM. The figures for the kcat in “purified protein [1]” and in the data set “purified protein [2]” were 141.44 ± 14.52 s⁻¹ and 49.16 ± 3.8 s⁻¹, respectively.

The values above are taken from article PMC5066087, “In Vitro Bioconversion of Pyruvate to n-Butanol with Minimized Cofactor Utilization” (Frontiers in Bioengineering and Biotechnology, 2016).
